In publication PMC3984498:

Molecular target: V[2]-TRF2ΔBΔM
Test: split reporter

PCA fluorescence lower than with wild-type TRF2: 45%
Substance: Venus fragment-tagged Ku70 (V[1]-Ku70 / V[2]-Ku70) (from UniProt P12956 1-609) (natural protein)
